Measured values reported in patent US5763284A, “Methods for peptide synthesis and purification” (Dade International Inc., priority 1995, dated 1998).

What was measured:
D011 cells = experiment: Loading of A20 APC and activation of D011 T cells, IL-2 release ELISA; format: cell-based, murine; conditions: DO11 and A20 cells, 24 hours
Protocol: The efficacy of a fusion polypeptide of the invention to load APCs and activate T cells was tested. A penI:Ova fusion polypeptide (i.e., a fusion polypeptide containing the penI protein linked to an Ova target peptide) was employed as well as other materials. Three independent experiments were performed utilizing A20 APC and the D011 T cell […] cell line. D011 cells are specifically responsive to Ova loaded major histocompability complex class II (MHCII) molecules presented by A20 APCs. A20 cells were loaded with 5 μg purified penI:Ova fusion polypeptide or 5 μg synthetic Ova peptide (positive control synthesized by Mimetics, Chiron Corp.) for 1 hour. 1×10^5 D011 cells were added and incubated with the loaded A20 cells for 24 hours. The degree of activation of D011 cells was determined by the release of Interleukin 2 (IL-2) into the culture medium. After 24 hours of incubation supernatants were collected and analyzed in an ELISA format for IL-2 (using two anti-IL2 antibodies from Pharmacia).
The following Table summarizes the results of the three experiments and includes several negative controls. One of these controls is a PenI:Ova fusion protein containing the hen egg lysozyme (HEL) peptide preceded by the Factor Xa cleavage recognition site IEGRNLCNIPCSALLSS (SEQ ID NO: 55) and therefore should not stimulate D011 cells.

TA1 antibody = experiment: BIAcore surface plasmon resonance binding of PenI:C9 muteins to immobilized TA1; parameters: species or system mouse; conditions: 30 μg/mL injected; relative response of wild type PenI:C9 set to 100%
Description: In order to analyze the different binding of the different PenI:C9 muteins to the TA1 antibody (TA1 was raised from a mouse that had been immunized with F1.2-C9 KLH by standard procedures; F1.2-C9 is the purified factor Xa cleavage product of prothrombin), a biosensor system using surface plasmon resonance detection (BIAcore, Pharmacia Biosensor) has been used. This system records the binding of the antigen to the immobilized TA1 in real time.
TA1 has been chemically immobilized onto the carboxymethylated dextran matrix of the sensor chip (CM5) using the amine coupling kit and the method provided by the manufacturer (Pharmacia Biosensor). For this purpose TA1 was diluted to 57 μg/mL in 10 mM Na-acetate buffer pH4. After activation of the sensor chip with 30 μl of a 1:1 mixture of 11.5 mg/mL N-hydroxysuccinimide (NHS) and 75 mg/ml N-ethyl-N'-(dimethylaminopropyl) carbodiimide (EDC) 5 μL of the TA1 solution was injected at a flow rate of 3 μL/min. […]
Each PenI:C9 and the native PenI protein was injected according to this program and a relative response in RU which represent the amount of penI:C9 mutein bound, was calculated by subtracting the RU of report point 1. from report point 2. Percent of binding was then calculated by setting the relative response of the wild type to 100%. […]

B1: PenI: penI repressor protein of Bacillus licheniformis without fusion peptide; negative control (protein, UniProt P06555 1-128, looked up)
Penicillinase repressor: MKKIPQISDAELEVMKVIWKHSSINTNEVIKELSKTSTWSPKTIQTMLLRLIKKGALNHHKEGRVFVYTPNIDESDYIEVKSHSFLNRFYNGTLNSMVLNFLENDQLSGEEINELYQILEEHKNRKKE
Q: B1 was tested. Which IL-2 release (D011 cells; Experiment 1) did it give?
A: 0 pg/mL

Q: What about the IL-2 release (D011 cells; Experiment 2) of the same molecule?
A: 0 pg/mL

Q: And the IL-2 release (D011 cells; Experiment 3)?
A: 0 pg/mL

Q: And the “Percent of binding to TA1” value (TA1 antibody)?
A: < 5%
